# Marks after values point to notes of the source that are not given here.
# B1: 21B12: human anti-PCSK9 monoclonal antibody, light/heavy variable region SEQ ID NO 23/49 (antibody, listed as Homo sapiens, V domains shown)
# VH: QVQLVQSGAEVKKPGASVKVSCKASGYTLTSYGISWVRQAPGQGLEWMGWVSFYNGNTNYAQKLQGRGTMTTDPSTSTAYMELRSLRSDDTAVYYCARGYGMDVWGQGTTVTVSS
# VL: QSALTQPASVSGSPGQSITISCTGTSSDVGGYNSVSWYQQHPGKAPKLMIYEVSNRPSGVSNRFSGSKSGNTASLTISGLQAEDEADYYCNSYTSTSMVFGGGTKLTVL
# Columns and labels:
# PCSK9 [1] = molecular target: T1, PCSK9 (Homo sapiens, UniProt Q8NBP7); assay: 12 week monotherapy dose-ranging study, Framingham risk 10% or less (Example 24); assay type: in vivo; conditions: for Treatment difference vs ezetimibe in LDL-C percent change, week 12 / Treatment difference vs placebo in LDL-C percent change, week 12: P < 0.001; for mean percent reduction from baseline in LDL-C: monotherapy, preliminary
# T1 construct: endogenous in cells; host or cells: human subjects, in vivo
# T1 sequence (Q8NBP7 153-692): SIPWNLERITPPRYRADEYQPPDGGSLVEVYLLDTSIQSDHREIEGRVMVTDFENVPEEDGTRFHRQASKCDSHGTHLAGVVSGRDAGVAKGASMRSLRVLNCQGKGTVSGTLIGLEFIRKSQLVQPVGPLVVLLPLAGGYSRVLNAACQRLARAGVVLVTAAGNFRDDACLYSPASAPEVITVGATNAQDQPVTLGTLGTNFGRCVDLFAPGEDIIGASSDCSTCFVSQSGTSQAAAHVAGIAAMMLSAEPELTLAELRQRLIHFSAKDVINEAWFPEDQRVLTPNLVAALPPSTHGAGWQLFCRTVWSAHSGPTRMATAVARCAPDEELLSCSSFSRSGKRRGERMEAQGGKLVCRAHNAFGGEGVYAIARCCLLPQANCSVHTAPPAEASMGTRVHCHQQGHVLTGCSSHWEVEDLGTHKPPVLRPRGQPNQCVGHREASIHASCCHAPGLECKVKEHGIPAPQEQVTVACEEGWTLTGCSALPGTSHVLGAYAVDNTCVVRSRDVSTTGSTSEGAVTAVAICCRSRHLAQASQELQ
# Method: Ezetimibe was not blinded. The end-of-study visit and the last estimation of lipids was at week 12 for subjects on Q4W IP schedule or on ezetimibe and week 14 for subjects on Q2W IP schedule.
# Males and females, ≥18 to ≤75 years of age, were eligible for this study. Fasting LDL-C was ≥100 mg/dL (2.6 mmol/L) and ≤190 mg/dL (4.9 mmol/L) and fasting triglycerides ≤400 mg/dL (4.5 mmol/L) by central laboratory at screening.
# The primary endpoint was the percent change from baseline in LDL-C at week 12. Secondary endpoints included percent changes in apolipoprotein B (ApoB), lipoprotein (a) (Lp(a)), and in the ratio of total cholesterol to high-density lipoprotein (HDL)-C. Tolerability and safety were also evaluated.
# [2] = Osmolality of 21B12 formulations; assay type: physicochemical
# Text: In certain embodiments, the pharmaceutical formulation is isotonic with an osmolality ranging from between about 250 to about 350 miliosmol/kg, e.g., about 250 mOsm/kg, about 260 mOsm/kg, about 270 mOsm/kg, about 280 mOsm/kg, about 290 mOsm/kg, about 300 mOsm/kg, about 310 mOsm/kg, about 320 mOsm/kg, about 330 mOsm/kg, about 340 mOsm/kg, or about 350 mOsm/kg, and including all values in between. As used herein, “osmolality” is the measure of the ratio of solutes to volume fluid. In other words, it is the number of molecules and ions (or molecules) per kilogram of a solution. Osmolality may be measured on an analytical instrument called an osmometer, such as Advanced Instruments 2020 Multi-sample Osmometer, Norwood, Mass. The Advanced Instruments 2020 Multi-sample Osmometer measures osmolality by using the Freezing Point Depression method. The higher the osmolytes in a solution, the temperature in which it will freeze drops. Osmolality may also be measured using any other methods and in any other units known in the art such as linear extrapolation.
# LDLR = LDLR levels in HepG2 and HepG2-PCSK9 cells with mevinolin (immunoblot); assay type: cell-based, human; conditions: 48 hours
# Method: HepG2 cells were seeded in DMEM with 10% fetal bovine serum (FBS) and grown to ˜90% confluence. The cells were treated with indicated amounts of mevinolin (a statin, Sigma) and PCSK9 ABPs (FIGS. 12A-12C) in DMEM with 3% FBS for 48 hours. Total cell lysates were prepared. […] of total proteins were separated by gel electrophoresis and transferred to PVDF membrane. Immunoblots were performed using rabbit anti-human LDL receptor antibody (Fitzgerald) or rabbit anti-human b-actin antibody. The enhanced chemiluminescent results are shown in the top panels of FIGS. 12A-12C. The intensity of the bands were quantified by ImageJ software and normalized by b-actin. The relative levels of LDLR are shown in the lower panels of FIGS. 12A-12C.
# HepG2-PCSK9 cells were also created. These were stable HepG2 cell line transfected with human PCSK9. The cells were seeded in DMEM with 10% fetal bovine serum (FBS) and grew to ˜90% confluence. The cells were treated with indicated amounts of mevinolin (Sigma) and PCSK9 ABPs (FIGS. 12D-12F) in DMEM with 3% FBS for 48 hours. Total cell lysates were prepared. […] of total proteins were separated by gel electrophoresis and transferred to PVDF membrane Immunoblots were performed using rabbit anti-human LDL receptor antibody (Fitzgerald) or rabbit anti-human b-actin antibody. […] The intensity of the bands were quantified by ImageJ software and normalized by b-actin.
# human PCSK9 = molecular target: T2, human PCSK9 (Homo sapiens, UniProt Q8NBP7, E620G/G670E/V474I); assay: BIAcore solution equilibrium binding assay; conditions: hPCSK9, solution equilibrium
# T2 construct: made in house
# T2 sequence (Q8NBP7 153-692 V474I/E620G/G670E): as the sequence (Q8NBP7 153-692) above, with V322I, E468G, G518E counted along it
# Text: Flow cell 3 was used as a background control. […] Although cPCSK9 has lower protein concentration observed from KinExA assay and SDS-gel, its concentration was not adjusted here since the concentration of cPCSK9 was not used for calculation of KD. […] FIG. 5B depicts the results from the solution equilibrium assay at three different hPCSK9 concentrations for hPCSK9. FIG. 5C depicts a similar set of results for mPCSK9. FIG. 5D depicts the results from the above biacore capture assay.
# PCSK9 [3] = molecular target: T1, PCSK9; assay: Aggregate data of the studies of Examples 22-25; assay type: in vivo
molecule,measurement,setting,value
B1,"Least squares mean percent change from baseline in LDL-C, week 12",PCSK9 [1]; 70 mg Q2W SC (N = 45),−40.98%
same,"Treatment difference vs ezetimibe in LDL-C percent change, week 12",PCSK9 [1]; 70 mg Q2W SC,−26.73* %
same,"Treatment difference vs placebo in LDL-C percent change, week 12",PCSK9 [1]; 70 mg Q2W SC,−37.27* %
same,mean percent reduction from baseline in LDL-C,"PCSK9 [1]; 70 mg Q2W SC, end of dosing interval",41.21%
same,"Least squares mean percent change from baseline in LDL-C, week 12",PCSK9 [1]; 105 mg Q2W SC (N = 46),−43.87%
same,"Treatment difference vs ezetimibe in LDL-C percent change, week 12",PCSK9 [1]; 105 mg Q2W SC,−29.62* %
same,"Treatment difference vs placebo in LDL-C percent change, week 12",PCSK9 [1]; 105 mg Q2W SC,−40.17* %
same,mean percent reduction from baseline in LDL-C,"PCSK9 [1]; 105 mg Q2W SC, end of dosing interval",45.44%
same,"Least squares mean percent change from baseline in LDL-C, week 12",PCSK9 [1]; 140 mg Q2W SC (N = 45),−50.93%
same,"Treatment difference vs ezetimibe in LDL-C percent change, week 12",PCSK9 [1]; 140 mg Q2W SC,−36.68* %
same,"Treatment difference vs placebo in LDL-C percent change, week 12",PCSK9 [1]; 140 mg Q2W SC,−47.23* %
same,mean percent reduction from baseline in LDL-C,PCSK9 [1]; 140 mg Q2W SC,51.56%
same,"Least squares mean percent change from baseline in LDL-C, week 12",PCSK9 [1]; 280 mg Q4W SC (N = 45),−39.02%
same,"Treatment difference vs ezetimibe in LDL-C percent change, week 12",PCSK9 [1]; 280 mg Q4W SC,−25.17* %
same,"Treatment difference vs placebo in LDL-C percent change, week 12",PCSK9 [1]; 280 mg Q4W SC,−43.57* %
same,mean percent reduction from baseline in LDL-C,"PCSK9 [1]; 280 mg Q4W SC, end of dosing interval",37.53%
same,"Least squares mean percent change from baseline in LDL-C, week 12",PCSK9 [1]; 350 mg Q4W SC (N = 45),−43.20%
same,"Treatment difference vs ezetimibe in LDL-C percent change, week 12",PCSK9 [1]; 350 mg Q4W SC,−29.34* %
same,"Treatment difference vs placebo in LDL-C percent change, week 12",PCSK9 [1]; 350 mg Q4W SC,−47.74* %
same,mean percent reduction from baseline in LDL-C,"PCSK9 [1]; 350 mg Q4W SC, end of dosing interval",42.16%
same,"Least squares mean percent change from baseline in LDL-C, week 12",PCSK9 [1]; 420 mg Q4W SC (N = 45),−47.98%
same,"Treatment difference vs ezetimibe in LDL-C percent change, week 12",PCSK9 [1]; 420 mg Q4W SC,−34.14* %
same,"Treatment difference vs placebo in LDL-C percent change, week 12",PCSK9 [1]; 420 mg Q4W SC,−52.53* %
same,mean percent reduction from baseline in LDL-C,PCSK9 [1]; 420 mg Q4W SC,47.52%
same,change in LDL-C from baseline to week 12 greater than with placebo,PCSK9 [1]; final data,up to 72 mg/dL
same,mean reduction from baseline for ApoB,PCSK9 [1]; final data,up to 44%
same,mean reduction from baseline for Lp(a),PCSK9 [1]; final data,up to 29%
same,LDL-C reductions from baseline greater than ezetimibe,"PCSK9 [1]; week 12, final data",37%
same,least-squares (LS) mean percent reduction from baseline in LDL-C,"PCSK9 [1]; week 12, final data, across dose regimens",up to 51%
same,Osmolality,"[2]; 73 mg/mL, 10 mM Na acetate, pH 5.2 +3% proline",253 mOsmol/kg
same,Osmolality,"[2]; 76 mg/mL, 10 mM Na acetate, pH 5.2",53 mOsmol/kg
same,Osmolality,"[2]; 116 mg/mL, 10 mM sodium acetate, pH 4.8, 50 mM methionine + 2% benzyl alcohol",329 mOsmol/kg
same,Osmolality,"[2]; 116 mg/mL, 10 mM sodium acetate, pH 4.8, 150 mM arginine",241 mOsmol/kg
same,Osmolality,"[2]; 116 mg/mL, 10 mM sodium acetate, pH 4.8, 1.5% proline + 1% benzyl alcohol",277 mOsmol/kg
same,Osmolality,"[2]; 116 mg/mL, 10 mM sodium acetate, pH 4.8, 2% proline + 1% benzyl alcohol",313 mOsmol/kg
same,Osmolality,"[2]; 116 mg/mL, 10 mM sodium acetate, pH 4.8, no excipient",72 mOsmol/kg
same,Osmolality,"[2]; 117 mg/mL, 10 mM Na acetate, pH 4.5",59 mOsmol/kg
same,Osmolality,"[2]; 122 mg/mL, 10 mM Na acetate, pH 5.2 +3% proline",274 mOsmol/kg
same,Osmolality,"[2]; 130 mg/mL, 10 mM Na acetate, pH 5",59 mOsmol/kg
same,Osmolality,"[2]; 148 mg/mL, 10 mM Na acetate, pH 5.2 +3% proline",301 mOsmol/kg
same,Osmolality,"[2]; 154 mg/mL, 10 mM Na acetate, pH 5.2",Did not freeze
same,Osmolality,"[2]; […], 10 mM Na acetate, pH 4",59 mOsmol/kg
same,Osmolality,"[2]; […], 10 mM Na acetate, pH 5.2 +150 mM NaCl",346 mOsmol/kg
same,Osmolality,"[2]; […], 10 mM Na acetate, pH 5.2 +3% proline",252 mOsmol/kg
same,Osmolality,"[2]; […], 10 mM Na acetate, pH 5.5",64 mOsmol/kg
same,Osmolality,"[2]; […], 10 mM Na acetate, pH 5.5 +150 Mm methionine and 3% benzyl alcohol",520 mOsmol/kg
same,LDLR levels compared with the non-neutralizer 25A7.1,LDLR,greater increase in LDLR levels
same,Kd,human PCSK9,0.015 nM
same,reduction from baseline in LDL-C at week 12,PCSK9 [3]; 140 mg Q2W,~60%
same,reduction from baseline in LDL-C at week 12,PCSK9 [3]; 420 mg Q4W,~56%
same,dose dependent reduction from baseline in ApoB,PCSK9 [3]; p values<0.001,36-53%
same,dose dependent reduction from baseline in non-HDL-C,PCSK9 [3]; p values<0.001,36-53%
same,dose dependent reduction from baseline in total cholesterol,PCSK9 [3]; p values<0.001,25-37%

# Source: patent US12612465B2, “Formulations comprising PCSK9 specific monoclonal antibodies” (Amgen Inc., priority 2012, dated 2026)
